# Experimental data reported in article PMC10031210 (Protein Science : A Publication of the Protein Society, 2023).
# B1: FkpA (full-length, dimeric form) (natural protein, E. coli, UniProt P45523 26-270, looked up)
# chain: AEAAKPATAADSKAAFKNDDQKSAYALGASLGRYMENSLKEQEKLGIKLDKDQLIAGVQDAFADKSKLSDQEIEQTLQAFEARVKSSAQAKMEKDAADNEAKGKEYREKFAKEKGVKTSSTGLVYQVVEAGKGEAPKDSDTVVVNYKGTLIDGKEFDNSYTRGEPLSFRLDGVIPGWTEGLKNIKKGGKIKLVIPPELAYGKAGVPGIPPNSTLVFDVELLDVKPAPKADAKPEADAKAADSAKK
# B2: unfolded outer membrane protein X (uOmpX) (natural protein, E. coli, UniProt P0A917 24-171, looked up)
# chain: ATSTVTGGYAQSDAQGQMNKMGGFNLKYRYEEDNSPLGVIGSFTYTEKSRTASSGDYNKNQYYGITAGPAYRINDWASIYGVVGVGYGKFQTTEYPTYKHDTSDYGFSYGAGLQFNPMENVALDFSYEQSRIRSVDVGTWIAGVGYRF
# Columns and labels:
# [1] = biological target: B2; test: cell-based or functional assay
# [2] = biological target: unfolded β-barrel assembly machine A (uBamA) (UniProt P0A940 21-810); test: AUC
# [3] = biological target: B1; test: AUC
decrease of the OmpX folding rate into diC11PC LUVs with FkpA [1],binding result [2],binding result [3],Binder
3 fold,binds,–,B1
–,–,binds,B2
